According to PMC4005694, “Archaeal aminoacyl-tRNA synthetases interact with the ribosome to recycle tRNAs” (Nucleic Acids Research, 2014):

T1: Methanothermobacter thermautotrophicus methanogenic-type seryl-tRNA synthetase (M. thermautotrophicus, UniProt O27194 1-513)
T1 construct: methanogenic-type seryl-tRNA synthetase (mSerRS) of M. thermautotrophicus; Labelled with DY-495 in the MST experiment with L12; coupled by amines to a CM5 chip in SPR; also called mSerRS; SerRS
T1 sequence (looked up): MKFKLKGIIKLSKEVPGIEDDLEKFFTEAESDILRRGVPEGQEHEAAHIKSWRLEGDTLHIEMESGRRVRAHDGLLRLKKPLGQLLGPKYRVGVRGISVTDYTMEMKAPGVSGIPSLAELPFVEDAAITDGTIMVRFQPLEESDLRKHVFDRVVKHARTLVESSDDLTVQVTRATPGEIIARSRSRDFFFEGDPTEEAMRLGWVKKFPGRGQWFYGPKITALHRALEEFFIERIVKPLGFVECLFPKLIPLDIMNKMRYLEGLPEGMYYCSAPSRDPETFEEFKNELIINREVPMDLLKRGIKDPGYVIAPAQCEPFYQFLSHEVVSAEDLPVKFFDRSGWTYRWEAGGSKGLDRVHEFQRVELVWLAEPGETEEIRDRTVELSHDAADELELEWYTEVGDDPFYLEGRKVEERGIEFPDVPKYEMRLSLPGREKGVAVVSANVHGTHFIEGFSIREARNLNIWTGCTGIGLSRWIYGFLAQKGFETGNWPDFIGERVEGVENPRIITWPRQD

T2: elongation factor EF-G of M. thermautotrophicus, found in the cross-linking experiment with 70S ribosomes (M. thermautotrophicus (endogenous in M. …, UniProt O27131 1-730))
T2 construct: EF-G of M. thermautotrophicus, Mr 81 kDa as printed; source: endogenous, in the 70S ribosome preparation from M. thermautotrophicus cells
T2 sequence (looked up): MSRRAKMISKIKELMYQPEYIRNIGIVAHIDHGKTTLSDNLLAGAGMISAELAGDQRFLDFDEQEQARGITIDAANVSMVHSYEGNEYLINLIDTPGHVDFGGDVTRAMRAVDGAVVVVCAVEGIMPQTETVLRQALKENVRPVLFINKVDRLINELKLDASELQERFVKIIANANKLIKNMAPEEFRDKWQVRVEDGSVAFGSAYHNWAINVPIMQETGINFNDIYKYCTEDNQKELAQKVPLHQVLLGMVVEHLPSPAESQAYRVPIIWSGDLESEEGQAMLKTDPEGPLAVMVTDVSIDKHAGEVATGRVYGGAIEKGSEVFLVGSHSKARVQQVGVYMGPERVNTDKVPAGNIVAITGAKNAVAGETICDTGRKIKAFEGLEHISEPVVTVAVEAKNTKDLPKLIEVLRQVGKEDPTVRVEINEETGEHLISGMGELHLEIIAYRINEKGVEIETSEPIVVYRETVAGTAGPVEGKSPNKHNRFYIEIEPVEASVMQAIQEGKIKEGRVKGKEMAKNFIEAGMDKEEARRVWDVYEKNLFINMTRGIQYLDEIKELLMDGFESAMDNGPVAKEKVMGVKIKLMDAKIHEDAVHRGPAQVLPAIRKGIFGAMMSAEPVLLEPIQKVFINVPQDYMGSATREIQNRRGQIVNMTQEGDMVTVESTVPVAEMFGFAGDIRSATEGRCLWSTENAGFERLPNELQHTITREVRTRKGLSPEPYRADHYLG

B1: recombinant ribosomal protein L12 of M. thermautotrophicus (natural protein, UniProt P05394 1-101, looked up)
chain: MEYIYAAMLLHTTGKEINEENVKSVLEAAGAEVDDARVKALIAALEDVDIEEAMETTAVAAAPAAAAAPAAAEEAEEEAEEEEEEEEAEEEAAAGLGALFG
notes: ribosomal protein L12 (P1 homologue) of M. thermautotrophicus; whole-length gene amplified from genomic DNA, cloned into pPROex-Htb via NcoI and SalI; also called P1; source: E. coli BL21 Rosetta, purified (Ni-NTA agarose)
B2: Methanothermobacter thermautotrophicus arginyl-tRNA synthetase (enzyme, M. thermautotrophicus, UniProt O27496 1-560, looked up)
chain: MFRYIEKEARDSITAALEKLGIKVPPEIKLEEPPNPQLGDLASTVSFELAGKLRRAPIEITADIMSVIETPEIFETIESKGPYINFFVDYGRFSSRLLESIQDDYGSHPPRDERVILEHTSANPNGPLHIGHIRNAIIGDSLARILRMAGYDVETQYYVNDMGRQIAMIVWGLLNLDGDLEDYPGDKMDHRVGKLYFEVNQRLKENPGIRDEVDELIRKYEAGENEELFRKVVEYCLSGMEETMKRLHVHHDRFVWEGQFVRDGTVDRVIESLRKTGYTGENDVLYLDLEEFGLEKELVLTRSDGTSLYSTRDIAYHLQKSEEGDVIIDVLGSDHKLAAEQVGIAVELLGGKRPEVIFYEFITLPEGSMSTRRGVFISVDELMDEAHSRALHEVKKRRDLPDDVADDIAESIGNGAIRYYIARLSPEKHIVFRWDDALSFERGCASIQYAHARACKLLEKASFTGEEDIEDGWKPEGDERELVRLLARFPVVVEESALARRVHPVAQYAQDLANTFNSFYRSTPVIGSDFEGARLRLVDSVRKTLRNALNLLGIHAPETM
notes: arginyl-tRNA synthetase of M. thermautotrophicus; gene inserted into pPROex-Htb as a BamHI and XhoI cassette; His-tagged ArgRS is named only for the Ni-NTA SPR surface; also called ArgRS; source: E. coli BL21 Rosetta, purified (Ni-NTA agarose)
B3: ribosomal protein L3p of M. thermautotrophicus, as it stands in the ribosome (natural protein, UniProt O26110 1-337, looked up)
chain: MARHHQPRKGSVAFSPRKRAARETPRVKSWPQVDEPGLLALAGYKAGMTHVMMVDNQKNSPTEGMEVSTPVTILEVPPLTVMAVRTYEKTSRGLKTLGEVLATETKDDLRRKLTPPADDYDQEAAIEKIRSNMEYVADVRVIVHTNPRLASVPKKKPEVFECGLGGKTPEEKFEYALEILGKDVRASEIFSEGAFVDAIAVTKGKGFQGPVKRWGIRIQYGKAARSSKGRHIGSLGPWTPSRTMWTVPQAGQMGYHRRTEYNKQILKIGDASEADLVNPDGGFVRYGLVRNDYVMIKGSVPGPTKRLVVLRKAIRAAGKQEEAPQINYISTASKQGV
notes: ribosomal protein L3 of M. thermautotrophicus, Mr 37 kDa as printed; Cross-linked while part of the ribosome; source: endogenous, in 70S ribosomes purified from M. thermautotrophicus cells
B4: recombinant ribosomal protein L3 of M. thermautotrophicus (natural protein, UniProt O26110 1-337, looked up)
chain: B3 chain
notes: ribosomal protein L3 of M. thermautotrophicus; gene inserted into pGEX-6P-2 via BamHI and EcoRI; The methods say both that the GST tag was removed and that GST-tagged proteins are appropriate for SPR; source: E. coli BL21 Rosetta, purified (GST-Sepharose)
B5: ribosomal protein L10 (P0 homologue) of M. thermautotrophicus, as it stands in the ribosome (natural protein, UniProt O27717 1-336, looked up)
chain: MAHVAEWKKKEVQELHDLIKGYEVVGIANLADIPARQLQKMRQTLRDSALIRMSKKTLISLALEKAGRELENVDSLSDYMEGQPALIFTDMNPFKLFKILEDSKTPAPAKPGAIAPDDIVVPKGDTGFAPGPILGELQQIGIPAKIEKGKIVVSNDHVVVKAGEEIPPKVAGILTRLDIQPLEVGIDLRAAYENQTVYTADVLTIDEEKTLSDIQKAFSQAFNLSVNAVIYTRETMPAIIQKAASKSFNLAYNASILTSETTDLLLAKAYAQMLALAAAAAEINDEAVDDELKEKLSSRAAAPAPEEKEEEVEEEAEEEEEEEEEDAAAGLGALFG
notes: ribosomal protein L10 (P0 homologue) of M. thermautotrophicus, Mr 37 kDa as printed; Cross-linked while part of the ribosome; source: endogenous, in 70S ribosomes purified from M. thermautotrophicus cells
B6: recombinant ribosomal protein L10 of M. thermautotrophicus (natural protein, UniProt O27717 1-336, looked up)
chain: B5 chain
notes: ribosomal protein L10 (P0 homologue) of M. thermautotrophicus; gene inserted into pGEX-6P-2 via BamHI and SalI; The methods say both that the GST tag was removed and that GST-tagged proteins are appropriate for SPR; also called P0; source: E. coli BL21 Rosetta, purified (GST-Sepharose)
B7: recombinant ribosomal protein L6 of M. thermautotrophicus (natural protein)
chain: not shown
notes: ribosomal protein L6 of M. thermautotrophicus; whole-length gene amplified from genomic DNA, cloned into pPROex-Htb via BamHI and SalI; source: E. coli BL21 Rosetta, purified (Ni-NTA agarose)

Assays:
Details in all cases: both partners purified
[1] = target: T1, Methanothermobacter thermautotrophicus …; assay: SPR; mSerRS amine-coupled to a CM5 chip (~800 RU), ribosomal proteins or controls as analytes; 25°C, Biacore T100, 10 µl/min; steady state affinity model
[2] = target: T1, Methanothermobacter thermautotrophicus …; assay: MST; labelled mSerRS kept constant, unlabelled L12 titrated 0.528 nM-17.32 µM; Monolith NT.115
[3] = target: T2, elongation factor EF-G of M. …; assay: cross-linking; 70S ribosomes incubated with mSerRS or ArgRS; EDC; quenched; complexes pelleted; SDS-PAGE and mass spectrometry
[4] = target: B2; assay: as above
[5] = target: B2; assay: SPR; ArgRS with ribosomal proteins; Ni-NTA surface used to immobilise His-tagged ArgRS, L6 or L12; which was held for which pair is not told; 25°C, Biacore T100

With B1 the Kd [1] was 170 nM and the Kd [2] was 460 nM.

B2: binds [3].

B3: binds [4].

In the case of B4, the Kd [1] is reported as 54 nM and the binding result [5] is reported as “binds”.

B5: binds [4].

For B6, the Kd [1] was 39 nM and the binding result [5] was “binds”.

In the case of B7, the Kd [1] is reported as 240 nM and the binding result [5] is reported as “binds”.
